This is an account of results in patent publication US20230313305A1, “METHODS AND USES OF INFLAMMATORY BOWEL DISEASE BIOMARKERS” (Washington University, priority 2017, published 2023).

For the assay, the system named is latent TGFβ. Briefly: Cleavage of latent TGFβ by tPA in cell free assay. The conditions noted are these: cell free assay (FIG. 22). Format: biochemical.

B1: tPA: serine protease that converts plasminogen to plasmin (protein, UniProt P00750 36-562, looked up)
Tissue-type plasminogen …: SYQVICRDEKTQMIYQQHQSWLRPVLRSNRVEYCWCNSGRAQCHSVPVKSCSEPRCFNGGTCQQALYFSDFVCQCPEGFAGKCCEIDTRATCYEDQGISYRGTWSTAESGAECTNWNSSALAQKPYSGRRPDAIRLGLGNHNYCRNPDRDSKPWCYVFKAGKYSSEFCSTPACSEGNSDCYFGNGSAYRGTHSLTESGASCLPWNSMILIGKVYTAQNPSAQALGLGKHNYCRNPDGDAKPWCHVLKNRRLTWEYCDVPSCSTCGLRQYSQPQFRIKGGLFADIASHPWQAAIFAKHRRSPGERFLCGGILISSCWILSAAHCFQERFPPHHLTVILGRTYRVVPGEEEQKFEVEKYIVHKEFDDDTYDNDIALLQLKSDSSRCAQESSVVRTVCLPPADLQLPDWTECELSGYGKHEALSPFYSERLKEAHVRLYPSSRCTSQHLLNRTVTDNMLCAGDTRSGGPQANLHDACQGDSGGPLVCLNDGRMTLVGIISWGLGCGQKDVPGVYTKVTNYLDWIRDNMRP
Consider B1, for which the “cleavage of latent TGFβ” value was “can directly and indirectly cleave”.
